Measured values from patent US20180201677A1 (ERASMUS UNIVERSITY MEDICAL CENTER, published 2018).
One block for each molecule: values may come before it.

How the values were obtained:
human CD47 [1] = molecular target: T1, human CD47 (human, UniProt Q08722 19-323); assay: flow cytometry, titration of SIRPα-Fc-bio on Jurkat cells
human CD47 [2] = molecular target: T1, human CD47; assay: cell-based or functional assay

EC70 (human CD47 [1]): 7.5 µg/mL
Molecule: biotinylated fusion protein of SIRPα (SIRPα-Fc-bio) (Fc fusion)

phagocytosis of Raji tumor cell line targets by primary human macrophages (EC50) (human CD47 [2]): ~300 ng/mL
B1: anti-CD47 antibody 2.3D11 (antibody, V domains shown)
VH: QVQLQESGPGLVKPSGTLSLTCAVSGVSIRSINWWNWVRQPPGKGLEWIGEIYHSGSTNYNPSLKSRVTISVDKSKNQFSLKLNSVTAADTAVYYCARDGGIAVTDYYYYGLDVWGQGTTVTVSS
VL: EIVLTQSPATLSLSPGERATLSCRASESVSSNLAWYQQKPGQAPRLLIYGAFNRATGIPARFSGSGSGTDFTLTISSLEPEDFAVYYCQQRSDWFTFGGGTKVEIKR
